Legend:
[1] = molecular target: T1, full-length TRAK1 (TRAK1^1–953) (human, UniProt Q9UPV9 1-953); assay: single-molecule TIRF colocalisation on microtubules; three-colour imaging of Alexa488-KIF5B, LD555-TRAK1 1-532 (or full-length TRAK1) and LD655-Miro1 1-592; 10 nM MAP7; 0, 0.1 and 2 mM Ca2+; details: both partners purified
T1 construct: TRAK1, human, residues 1-953, full length; source: HEK 293 F GNTI-/- cells, PEI transfection, purified (TRAK purification procedure); not shown: His6-ZZ, N-terminal, cleaved; SNAP-tag or GFP, C-terminal, kept
T1 sequence (looked up): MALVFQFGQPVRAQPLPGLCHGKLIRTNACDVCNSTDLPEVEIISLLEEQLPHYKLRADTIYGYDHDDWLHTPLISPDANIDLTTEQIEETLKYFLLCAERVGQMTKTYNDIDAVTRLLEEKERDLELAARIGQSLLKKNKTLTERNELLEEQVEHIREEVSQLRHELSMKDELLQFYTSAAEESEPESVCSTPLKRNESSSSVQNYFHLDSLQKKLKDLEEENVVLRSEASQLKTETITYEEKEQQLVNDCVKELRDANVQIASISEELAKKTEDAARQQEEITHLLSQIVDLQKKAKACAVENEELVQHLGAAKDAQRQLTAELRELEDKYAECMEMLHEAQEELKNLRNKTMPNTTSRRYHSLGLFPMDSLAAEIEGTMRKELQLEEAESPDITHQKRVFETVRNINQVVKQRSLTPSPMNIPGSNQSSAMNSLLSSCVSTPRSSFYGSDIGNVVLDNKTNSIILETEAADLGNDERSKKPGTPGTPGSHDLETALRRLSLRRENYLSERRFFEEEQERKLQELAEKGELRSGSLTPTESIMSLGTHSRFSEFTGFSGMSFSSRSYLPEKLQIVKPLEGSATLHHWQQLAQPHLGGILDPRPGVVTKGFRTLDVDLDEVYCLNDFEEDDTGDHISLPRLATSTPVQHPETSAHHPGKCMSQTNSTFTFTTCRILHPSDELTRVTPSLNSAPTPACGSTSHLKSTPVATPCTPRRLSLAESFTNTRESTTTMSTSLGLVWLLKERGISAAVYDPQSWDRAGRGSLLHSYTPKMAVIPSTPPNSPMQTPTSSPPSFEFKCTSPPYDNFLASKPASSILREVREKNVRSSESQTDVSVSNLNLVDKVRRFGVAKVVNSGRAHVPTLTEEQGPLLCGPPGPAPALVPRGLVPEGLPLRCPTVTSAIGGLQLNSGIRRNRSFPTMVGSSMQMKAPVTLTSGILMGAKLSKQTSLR

[2] = molecular target: T2, full-length TRAK2 (TRAK2^1–914) (human, UniProt O60296 1-914); assay: co-IP; purified proteins, 10 µg each, GFP-Trap beads, MB buffer with 100 mM NaCl and BSA; KIF5B-GFP-SNAPf, Miro1 1-592 and TRAK1 1-532, full-length TRAK1 or full-length TRAK2; with GTPγS or GDP; 0, 100 nM or 2 mM Ca2+; details: both partners purified
T2 construct: TRAK2, human, residues 1-914, full length; source: HEK 293 F GNTI-/- cells, PEI transfection, purified (TRAK purification procedure); not shown: His6-ZZ, N-terminal, cleaved; SNAP-tag or GFP, C-terminal, kept
T2 sequence (looked up): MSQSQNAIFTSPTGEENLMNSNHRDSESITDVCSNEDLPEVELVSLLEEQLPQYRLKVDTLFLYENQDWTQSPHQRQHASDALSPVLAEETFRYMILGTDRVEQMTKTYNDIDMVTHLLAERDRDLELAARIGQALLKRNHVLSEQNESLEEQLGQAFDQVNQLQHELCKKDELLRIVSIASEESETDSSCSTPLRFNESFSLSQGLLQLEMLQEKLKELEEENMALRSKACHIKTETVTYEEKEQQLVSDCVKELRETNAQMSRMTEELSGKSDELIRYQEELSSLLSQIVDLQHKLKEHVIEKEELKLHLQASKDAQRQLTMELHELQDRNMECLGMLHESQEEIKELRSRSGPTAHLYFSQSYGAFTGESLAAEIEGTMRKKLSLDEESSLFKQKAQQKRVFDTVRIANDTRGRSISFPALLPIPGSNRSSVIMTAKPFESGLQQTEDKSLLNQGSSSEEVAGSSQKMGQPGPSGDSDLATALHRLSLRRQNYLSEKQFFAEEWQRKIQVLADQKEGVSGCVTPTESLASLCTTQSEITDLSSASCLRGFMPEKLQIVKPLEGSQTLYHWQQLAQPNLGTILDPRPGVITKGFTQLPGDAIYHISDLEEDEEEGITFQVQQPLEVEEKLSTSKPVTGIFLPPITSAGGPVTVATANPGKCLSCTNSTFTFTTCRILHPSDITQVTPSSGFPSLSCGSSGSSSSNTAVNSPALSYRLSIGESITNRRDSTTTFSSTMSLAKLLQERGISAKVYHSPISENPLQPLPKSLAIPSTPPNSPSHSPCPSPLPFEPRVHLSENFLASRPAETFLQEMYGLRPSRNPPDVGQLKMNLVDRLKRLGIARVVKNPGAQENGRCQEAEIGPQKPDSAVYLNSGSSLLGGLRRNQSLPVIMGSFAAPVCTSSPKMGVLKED

B1: Miro1^1–592 (Miro1^1–592-SNAP-psc-StrepII) (domain or fragment, human, UniProt Q8IXI2 1-592, looked up)
chain: MKKDVRILLVGEPRVGKTSLIMSLVSEEFPEEVPPRAEEITIPADVTPERVPTHIVDYSEAEQSDEQLHQEISQANVICIVYAVNNKHSIDKVTSRWIPLINERTDKDSRLPLILVGNKSDLVEYSSMETILPIMNQYTEIETCVECSAKNLKNISELFYYAQKAVLHPTGPLYCPEEKEMKPACIKALTRIFKISDQDNDGTLNDAELNFFQRICFNTPLAPQALEDVKNVVRKHISDGVADSGLTLKGFLFLHTLFIQRGRHETTWTVLRRFGYDDDLDLTPEYLFPLLKIPPDCTTELNHHAYLFLQSTFDKHDLDRDCALSPDELKDLFKVFPYIPWGPDVNNTVCTNERGWITYQGFLSQWTLTTYLDVQRCLEYLGYLGYSILTEQESQASAVTVTRDKKIDLQKKQTQRNVFRCNVIGVKNCGKSGVLQALLGRNLMRQKKIREDHKSYYAINTVYVYGQEKYLLLHDISESEFLTEAEIICDVVCLVYDVSNPKSFEYCARIFKQHFMDSRIPCLIVAAKSDLHEVKQEYSISPTDFCRKHKMPPPQAFTCNTADAPSKDIFVKLTTMAMYPHVTQADLKSSTF
modifications: LD655 dye on the SNAP tag in motility assays
notes: mitochondrial Rho GTPase 1 (Miro1), human, residues 1-592, lacks the transmembrane domain; A PreScission site (psc) stands between SNAP and StrepII; no cleavage is told; also called Miro1^1–592-StrepII; Miro1^1–592-SNAPf-StrepII; source: purified (Streptactin Sepharose, eluted with desthiobiotin); not shown: SNAP, C-terminal, kept; StrepII, C-terminal, kept
**Q.** Does B1 bind [1]?
**A.** binds

**Q.** Does B1 bind [2]?
**A.** binds

Source: PMC10011603, “TRAK adaptors regulate the recruitment and activation of dynein and kinesin in mitochondrial transport” (Nature Communications, 2023)
